# Results reported in the supplement of paper PMC12458215.
# ± gives the uncertainty stated by the source.
# Test system: HEK293T
# Experiment: plasma membrane surface immunostaining intensity (anti-HA, deep receptor scanning) (arbitrary fluorescence units); higher = higher plasma membrane expression
# Conditions: GPCR class: A
row,Sequence,plasma membrane surface immunostaining intensity
1,MCPMLLKNGYNGNATPVTTTAPWASLGLSAKTCNNVSFEESRIVLVVVYSAVCTLGVPANCLTAWLALLQVLQGNVLAVYLLCLALCELLYTGTLPLWVIYIRNQHRWTLGLLACKVTAYIFFCNIYVSILFLCCISCDRFVAVVYALESRGRRRRRTAILISACIFILVGIVHYPVFQTEDKETCFDMLQMDSRIAGYYYARFTVGFAIPLSIIAFTNHRIFRSIKQSMGLSAAQKAKVKHSAIAVVVIFLVCFAPYHLVLLVKAAAFSYYRGDRNAMCGLEERLYTASVVFLCLSTVNGVADPIIYVLATDHSRQEVSRIHKGWKEWSMKTDVTRLTHSRDTEELQSPVALADHYTFSRPVHPPGSPCPAKRLIEESC [GPR132],372 ± 74
2,MDFLNSSDQNLTSEELLNRMPSKILVSLTLSGLALMTTTINSLVIAAIIVTRKLHHPANYLICSLAVTDFLVAVLVMPFSIVYIVRESWIMGQVVCDIWLSVDITCCTCSILHLSAIALDRYRAITDAVEYARKRTPKHAGIMITIVWIISVFISMPPLFWRHQGTSRDDECIIKHDHIVSTIYSTFGAFYIPLALILILYYKIYRAAKTLYHKRQASRIAKEEVNGQVLLESGEKSTKSVSTSYVLEKSLSDPSTDFDKIHSTVRSLRSEFKHEKSWRRQKISGTRERKAATTLGLILGAFVICWLPFFVKELVVNVCDKCKISEEMSNFLAWLGYLNSLINPLIYTIFNEDFKKAFQKLVRCRC [HTR1F],2040 ± 280
3,MDGSNVTSFVVEEPTNISTGRNASVGNAHRQIPIVHWVIMSISPVGFVENGILLWFLCFRMRRNPFTVYITHLSIADISLLFCIFILSIDYALDYELSSGHYYTIVTLSVTFLFGYNTGLYLLTAISVERCLSVLYPIWYRCHRPKYQSALVCALLWALSCLVTTMEYVMCIDREEESHSRNDCRAVIIFIAILSFLVFTPLMLVSSTILVVKIRKNTWASHSSKLYIVIMVTIIIFLIFAMPMRLLYLLYYEYWSTFGNLHHISLLFSTINSSANPFIYFFVGSSKKKRFKESLKVVLTRAFKDEMQPRRQKDNCNTVTVETVV [MAS1],782 ± 65
4,MDHQDPYSVQATAAIAAAITFLILFTIFGNALVILAVLTSRSLRAPQNLFLVSLAAADILVATLIIPFSLANELLGYWYFRRTWCEVYLALDVLFCTSSIVHLCAISLDRYWAVSRALEYNSKRTPRRIKCIILTVWLIAAVISLPPLIYKGDQGPQPRGRPQCKLNQEAWYILASSIGSFFAPCLIMILVYLRIYLIAKRSNRRGPRAKGGPGQGESKQPRPDHGGALASAKLPALASVASAREVNGHSKSTGEKEEGETPEDTGTRALPPSWAALPNSGQGQKEGVCGASPEDEAEEEEEEEEEEEECEPQAVPVSPASACSPPLQQPQGSRVLATLRGQVLLGRGVGAIGGQWWRRRAQLTREKRFTFVLAVVIGVFVLCWFPFFFSYSLGAICPKHCKVPHGLFQFFFWIGYCNSSLNPVIYTIFNQDFRRAFRRILCRPWTQTAW [ADRA2B],6390 ± 13
5,MDLELDEYYNKTLATENNTAATRNSDFPVWDDYKSSVDDLQYFLIGLYTFVSLLGFMGNLLILMALMKKRNQKTTVNFLIGNLAFSDILVVLFCSPFTLTSVLLDQWMFGKVMCHIMPFLQCVSVLVSTLILISIAIVRYHMIKHPISNNLTANHGYFLIATVWTLGFAICSPLPVFHSLVELQETFGSALLSSRYLCVESWPSDSYRIAFTISLLLVQYILPLVCLTVSHTSVCRSISCGLSNKENRLEENEMINLTLHPSKKSGPQVKLSGSHKWSYSFIKKHRRRYSKKTACVLPAPERPSQENHSRILPENFGSVRSQLSSSSKFIPGVPTCFEIKPEENSDVHELRVKRSVTRIKKRSRSVFYRLTILILVFAVSWMPLHLFHVVTDFNDNLISNRHFKLVYCICHLLGMMSCCLNPILYGFLNNGIKADLVSLIHCLHM [NPY5R],269 ± 26

# Same assay, conditions: GPCR class: A (Olfactory)
row,Sequence,plasma membrane surface immunostaining intensity
1,MAWENQTFNSDFILLGIFNHSPPHTFLFFLVLGIFLVAFMGNSVMVLLIYLDTQLHTPMYFLLSQLSLMDLMLICTTVPKMAFNYLSGSKSISMAGCVTQIFFYISLSGSECFLLAVMAYDRYIAICHPLRYTNLMNPKICGLMATFSWILGSTDGIIDAVATFSFSFCGSREIAHFFCEFPSLLILSCNDTSIFEEVIFICCIVMLVFPVAIIIASYARVILAVIHMGSGEGRCKAFTTCSSHLMVVGMYYGAALFMYIRPTSDHSPTQDKMVSVFYTILTPMLNPLIYSLRNKEVTRAFMKILGKGKSESELPHKLYVLLFAKFFFLISIFFYDVKILALIMYIA [OR2M2],134 ± 22
2,MAWENQTFNSDFILLGIFNHSPTHTFLFFLVLAIFSVAFMGNSVMVLLIYLDTQLHTPMYFLLSQLFLMDLMLICSTVPKMAFNYLSGSKSISMAGCATQIFFYVSLLGSECFLLAVMSYDRYIAICHPLRYTNLMRPKICGLMTAFSWILGSMDAIIDAVATFSFSYCGSREIAHFFCDFPSLLILSCNDTSIFEKVLFICCIVMIVFPVAIIIASYARVILAVIHMGSGEGRRKAFTTCSSHLMVVGMYYGAGLFMYIRPTSDRSPMQDKLVSVFYTILTPMLNPLIYSLRNKEVTRALRKVLGKGKCGE [OR2M5],111 ± 20
3,MAWENQTFNSDFLLLGIFNHSPTHTFLFFLVLAIFSVAFMGNSIMVLLIYLDTQLHTPMYFLLSQLSLMDLMLICTTVPKMAFNYLSGSKSISMAGCATQIFFYISLLGSECFLLAVMSYDRYTAICHPLRYTNLMRPKICGLMTAFSWILGSTDGIIDAVATFSFSYCGSREIAHFCCDFPSLLILSCNDTSIFEEVIFICCIVMLVFPVAIIITSYARVILAVIHMGSGEGRRKAFTTCSSHLMVVGMYYGAGLFMCIQPTSHHSPMQDKMVSVFYTIVTPMLNPLIYSLRNKEVTRALMKILGKGKSGD [OR2M7],157 ± 44
4,MCSGNQTSQNQTASTDFTLTGLFAESKHAALLYTVTFLLFLMALTGNALLILLIHSEPRLHTPMYFFISQLALMDLMYLCVTVPKMLVGQVTGDDTISPSGCGIQMFFYLTLAGAEVFLLAAMAYDRYAAVCRPLHYPLLMNQRVCQLLVSACWVLGMVDGLLLTPITMSFPFCQSRKILSFFCETPALLKLSCSDVSLYKTLMYLCCILMLLAPIMVISSSYTLILHLIHRMNSAAGHRKALATCSSHMIIVLLLFGASFYTYMLPSSYHTAEQDMMVSAFYTIFTPVLNPLIYSLRNKDVTRALRSMMQSRMNQEK [OR2T3],450 ± 200
5,MCWTMPSPFTGSSTRNMESGNQSTVTEFIFTGFPQLQDGSLLYFFPLLFIYTFIIIDNLLIFSAVRLDTHLHNPMYNFISIFSFLEIWYTTATIPKMLSNLISEKKAISMTGCILQMYFFHSLENSEGILLTTMAIDRYVAICNPLRYQMIMTPRLCAQLSAGSCLFGFLILLPEIVMISTLPFCGPNQIHQIFCDLVPVLSLACTDTSMILIEDVIHAVTIIITFLIIALSYVRIVTVILRIPSSEGRQKAFSTCAGHLMVFPIFFGSVSLMYLRFSDTYPPVLDTAIALMFTVLAPFFNPIIYSLRNKDMNNAIKKLFCLQKVLNKPGG [OR6K3],197 ± 66
6,MDGTNGSTQTHFILLGFSDRPHLERILFVVILIAYLLTLVGNTTIILVSRLDPHLHTPMYFFLAHLSFLDLSFTTSSIPQLLYNLNGCDKTISYMGCAIQLFLFLGLGGVECLLLAVMAYDRCVAICKPLHYMVIMNPRLCRGLVSVTWGCGVANSLAMSPVTLRLPRCGHHEVDHFLREMPALIRMACVSTVAIEGTVFVLAVGVVLSPLVFILLSYSYIVRAVLQIRSASGRQKAFGTCGSHLTVVSLFYGNIIYMYMQPGASSSQDQGMFLMLFYNIVTPLLNPLIYTLRNREVKGALGRLLLGKRELGKE [OR2W3],129 ± 7.6
7,MDISEGNKTLVTEFVLTGLTDRPWLHVLFFVVFLVVYLITMVGNLGLIVLIWNDPHLHMPMYLFLGGLAFSDACTSTSITPRMLVNFLDKTAMISLAECITQFYFFASSATTECFLLVMMAYDRYVAICNPLLYPVMMSNKLSAQLLSISYVIGFLHPLVHVSLLLRLTFCRFNIIHYFYCEILQLFKISCNGPSINALMIFIFGAFIQIPTLMTIIISYTRVLFDILKKKSEKGRSKAFSTCGAHLLSVSLYYGTLIFMYVRPASGLAEDQDKVYSLFYTIIIPLLNPFIYSLRNKKVMHALRRVIRK [OR5AC2],166 ± 48
8,MDKINQTFVREFILLGLSGYPKLEIIFFALILVMYVVILIGNGVLIIASILDSRLHMPMYFFLGNLSFLDICYTTSSIPSTLVSLISKKRNISFSGCAVQMFFGFAMGSTECFLLGMMAFDRYVAICNPLRYPIIMNKVVYVLLTSVSWLSGGINSTVQTSLAMRWPFCGNNIINHFLCEILAVLKLACSDISVNIVTLAVSNIAFLVLPLLVIFFSYMFILYTILRTNSATGRHKAFSTCSAHLTVVIIFYGTIFFMYAKPKSQDLLGKDNLQATEGLVSMFYGVVTPMLNPIIYSLRNKDVKAAIKYLLSRKAINQ [OR13C4],311 ± 110

# Same assay, conditions: GPCR class: B
row,Sequence,plasma membrane surface immunostaining intensity
1,MDAALLHSLLEANCSLALAEELLLDGWGPPLDPEGPYSYCNTTLDQIGTCWPRSAAGALVERPCPEYFNGVKYNTTRNAYRECLENGTWASKINYSQCEPILDDKQRKYDLHYRIALVVNYLGHCVSVAALVAAFLLFLALRSIRCLRNVIHWNLITTFILRNVMWFLLQLVDHEVHESNEVWCRCITTIFNYFVVTNFFWMFVEGCYLHTAIVMTYSTERLRKCLFLFIGWCIPFPIIVAWAIGKLYYENEQCWFGKEPGDLVDYIYQGPIILVLLINFVFLFNIVRILMTKLRASTTSETIQYRKAVKATLVLLPLLGITYMLFFVNPGEDDLSQIMFIYFNSFLQSFQGFFVSVFYCFFNGEVRSAVRKRWHRWQDHHSLRVPMARAMSIPTSPTRISFHSIKQTAAV [CRHR2],2380 ± 560
2,MDHCGALFLCLCLLTLQNATTETWEELLSYMENMQVSRGRSSVFSSRQLHQLEQMLLNTSFPGYNLTLQTPTIQSLAFKLSCDFSGLSLTSATLKRVPQAGGQHARGQHAMQFPAELTRDACKTRPRELRLICIYFSNTHFFKDENNSSLLNNYVLGAQLSHGHVNNLRDPVNISFWHNQSLEGYTLTCVFWKEGARKQPWGGWSPEGCRTEQPSHSQVLCRCNHLTYFAVLMQLSPALVPAELLAPLTYISLVGCSISIVASLITVLLHFHFRKQSDSLTRIHMNLHASVLLLNIAFLLSPAFAMSPVPGSACTALAAALHYALLSCLTWMAIEGFNLYLLLGRVYNIYIRRYVFKLGVLGWGAPALLVLLSLSVKSSVYGPCTIPVFDSWENGTGFQNMSICWVRSPVVHSVLVMGYGGLTSLFNLVVLAWALWTLRRLRERADAPSVRACHDTVTVLGLTVLLGTTWALAFFSFGVFLLPQLFLFTILNSLYGFFLFLWFCSQRCRSEAEAKAQIEAFSSSQTTQ [ADGRG5],512 ± 20

# Same assay, conditions: GPCR class: F
row,Sequence,plasma membrane surface immunostaining intensity
1,MAWRGAGPSVPGAPGGVGLSLGLLLQLLLLLGPARGFGDEEERRCDPIRISMCQNLGYNVTKMPNLVGHELQTDAELQLTTFTPLIQYGCSSQLQFFLCSVYVPMCTEKINIPIGPCGGMCLSVKRRCEPVLKEFGFAWPESLNCSKFPPQNDHNHMCMEGPGDEEVPLPHKTPIQPGEECHSVGTNSDQYIWVKRSLNCVLKCGYDAGLYSRSAKEFTDIWMAVWASLCFISTAFTVLTFLIDSSRFSYPERPIIFLSMCYNIYSIAYIVRLTVGRERISCDFEEAAEPVLIQEGLKNTGCAIIFLLMYFFGMASSIWWVILTLTWFLAAGLKWGHEAIEMHSSYFHIAAWAIPAVKTIVILIMRLVDADELTGLCYVGNQNLDALTGFVVAPLFTYLVIGTLFIAAGLVALFKIRSNLQKDGTKTDKLERLMVKIGVFSVLYTVPATCVIACYFYEISNWALFRYSADDSNMAVEMLKIFMSLLVGITSGMWIWSAKTLHTWQKCSNRLVNSGKVKREKRGNGWVKPGKGSETVV [FZD4],5830 ± 270
